Reference: US20200216833A1

Target: SH2 domain of Abl1 kinase fused to 434 cI repressor (UniProt P16117)
Assay: cell-based or functional assay

## HA4 Y84A monobody (from UniProt P0A800 1-91) (designed binder)
  ON propagation on this AP combo, against the wt HA4 monobody: 105 fold lower
